Reference: the supplement of paper PMC9112550, “Optimization of the antimicrobial peptide Bac7 by deep mutational scanning” (BMC Biology, 2022)

Test system: Escherichia coli TOP10
Test: shrunken log2 fold change of peptide-encoding DNA abundance (4.5 h post-induction vs induction); higher = less antimicrobial activity (less host growth inhibition)
Settings: time post-induction: 4.5 h; library: site-saturation at positions 5, 18, 19, 20
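Note: peptides expressed intracellularly from a pBAD plasmid library in pooled LB shake-flask culture, induced with 0.3% L-arabinose, DNA abundance read by NGS, three biological replicates, DESeq2 with apeglm shrinkage.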

| Sequence | shrunken log2 fold change |
| --- | --- |
| RRIRSRPPRLPRPRPRPKIGPRP | -0.0115 |
| RRIRSRPPRLPRPRPRPVYTPRP | -0.105 |
| RRIRQRPPRLPRPRPRPMFCPRP | 0.0313 |
| RRIRNRPPRLPRPRPRPDDDPRP | -0.153 |
| RRIRTRPPRLPRPRPRPSMGPRP | -0.22 |
| RRIRLRPPRLPRPRPRPAKWPRP | 0.388 |
| RRIRNRPPRLPRPRPRPVGPPRP | 0.448 |
| RRIRKRPPRLPRPRPRPLWWPRP | 0.477 |
| RRIRHRPPRLPRPRPRPQIEPRP | -0.24 |
| RRIRSRPPRLPRPRPRPTRSPRP | 0.784 |
| RRIRIRPPRLPRPRPRPTQMPRP | 0.565 |
| RRIRFRPPRLPRPRPRPEVCPRP | 0.00109 |
| RRIRMRPPRLPRPRPRPGLWPRP | 1.1 |
| RRIRQRPPRLPRPRPRPPAQPRP | 0.0181 |
| RRIRLRPPRLPRPRPRPIAYPRP | -0.0152 |
| RRIRLRPPRLPRPRPRPRKHPRP | -0.0984 |
| RRIRLRPPRLPRPRPRPHKFPRP | -0.138 |
| RRIRARPPRLPRPRPRPRGYPRP | 0.166 |
| RRIRDRPPRLPRPRPRPVHDPRP | 0.19 |
| RRIRQRPPRLPRPRPRPMWIPRP | -0.146 |
| RRIRIRPPRLPRPRPRPLQFPRP | -0.0429 |
| RRIRERPPRLPRPRPRPHYTPRP | -0.615 |
| RRIRERPPRLPRPRPRPHGCPRP | -0.00136 |
| RRIRQRPPRLPRPRPRPILCPRP | -0.0627 |
| RRIRKRPPRLPRPRPRPISTPRP | -0.218 |

| Sequence | shrunken log2 fold change |
| --- | --- |
| RRIRMRPPRLPRPRPRPVADPRP | 3 |
| RRIRHRPPRLPRPRPRPNIVPRP | -0.0257 |
| RRIRQRPPRLPRPRPRPSHHPRP | 0.0184 |
| RRIRKRPPRLPRPRPRPILTPRP | -0.149 |
| RRIRERPPRLPRPRPRPHQHPRP | -0.449 |
| RRIRNRPPRLPRPRPRPIMIPRP | -0.363 |
| RRIRIRPPRLPRPRPRPQDYPRP | -0.162 |
| RRIRWRPPRLPRPRPRPLSLPRP | 0.0175 |
| RRIRHRPPRLPRPRPRPMDKPRP | -0.123 |
| RRIRDRPPRLPRPRPRPSAGPRP | 0.67 |
| RRIRGRPPRLPRPRPRPVEAPRP | 0.997 |
| RRIRWRPPRLPRPRPRPWLCPRP | -0.0206 |
| RRIRQRPPRLPRPRPRPSEHPRP | -0.195 |
| RRIRYRPPRLPRPRPRPQFIPRP | -1.19 |
| RRIRTRPPRLPRPRPRPPQWPRP | 0.274 |
| RRIRFRPPRLPRPRPRPFFNPRP | -0.313 |
| RRIRRRPPRLPRPRPRPGLGPRP | 0.55 |
| RRIRVRPPRLPRPRPRPKIYPRP | -0.309 |
| RRIRIRPPRLPRPRPRPSLHPRP | -0.824 |
| RRIRLRPPRLPRPRPRPWTNPRP | 0.0169 |
| RRIRLRPPRLPRPRPRPQIFPRP | -0.165 |
| RRIRSRPPRLPRPRPRPKGCPRP | 0.134 |
| RRIRRRPPRLPRPRPRPMHKPRP | 0.299 |
| RRIRYRPPRLPRPRPRPCCYPRP | -0.363 |
| RRIRFRPPRLPRPRPRPLTAPRP | -0.0807 |

| Sequence | shrunken log2 fold change |
| --- | --- |
| RRIRLRPPRLPRPRPRPPLGPRP | 0.409 |
| RRIRPRPPRLPRPRPRPARSPRP | 0.315 |
| RRIRFRPPRLPRPRPRPMDAPRP | 0.111 |
| RRIRPRPPRLPRPRPRPMFFPRP | -0.207 |
| RRIRCRPPRLPRPRPRPIICPRP | -0.442 |
| RRIRKRPPRLPRPRPRPRCYPRP | -0.181 |
| RRIRFRPPRLPRPRPRPKANPRP | 0.00613 |
| RRIRQRPPRLPRPRPRPRVIPRP | 0.113 |
| RRIRHRPPRLPRPRPRPLSRPRP | 0.172 |
| RRIRWRPPRLPRPRPRPCPEPRP | 0.0311 |
| RRIRNRPPRLPRPRPRPPFFPRP | 0.162 |
| RRIRCRPPRLPRPRPRPALKPRP | 0.0946 |
| RRIRVRPPRLPRPRPRPPDAPRP | 0.254 |
| RRIRPRPPRLPRPRPRPFHQPRP | -0.216 |
| RRIRSRPPRLPRPRPRPVAIPRP | -0.28 |
| RRIRVRPPRLPRPRPRPMTVPRP | 0.116 |
| RRIRIRPPRLPRPRPRPKIRPRP | -0.0911 |
| RRIRARPPRLPRPRPRPRCHPRP | 0.308 |
| RRIRERPPRLPRPRPRPANAPRP | -0.0563 |
| RRIRYRPPRLPRPRPRPLSHPRP | -0.678 |
| RRIRDRPPRLPRPRPRPSTDPRP | 0.0145 |
| RRIRKRPPRLPRPRPRPFGQPRP | 0.783 |
| RRIRGRPPRLPRPRPRPSVIPRP | 0.159 |
| RRIRWRPPRLPRPRPRPVDVPRP | -0.0135 |
| RRIRCRPPRLPRPRPRPHMHPRP | -0.527 |

| Sequence | shrunken log2 fold change |
| --- | --- |
| RRIRIRPPRLPRPRPRPFRRPRP | 0.017 |
| RRIRNRPPRLPRPRPRPWWDPRP | -0.00674 |
| RRIRPRPPRLPRPRPRPQVKPRP | 0.205 |
| RRIRPRPPRLPRPRPRPMHHPRP | -0.194 |
| RRIRERPPRLPRPRPRPCGWPRP | 0.154 |
| RRIRVRPPRLPRPRPRPAMKPRP | -0.187 |
| RRIRKRPPRLPRPRPRPPEMPRP | 0.262 |
| RRIRCRPPRLPRPRPRPFDVPRP | -0.479 |
| RRIRKRPPRLPRPRPRPESDPRP | 0.262 |
| RRIRERPPRLPRPRPRPNPQPRP | 0.0138 |
| RRIRPRPPRLPRPRPRPETYPRP | -0.0102 |
| RRIRCRPPRLPRPRPRPDDVPRP | -0.0387 |
| RRIRFRPPRLPRPRPRPMDFPRP | -0.00674 |
| RRIRQRPPRLPRPRPRPSILPRP | -0.177 |
| RRIRFRPPRLPRPRPRPNHPPRP | -0.84 |
| RRIRGRPPRLPRPRPRPKTPPRP | 1.73 |
| RRIRDRPPRLPRPRPRPEAPPRP | 0.412 |
| RRIRERPPRLPRPRPRPTSIPRP | -0.19 |
| RRIRARPPRLPRPRPRPHCHPRP | -0.195 |
| RRIRGRPPRLPRPRPRPGKLPRP | 0.461 |
| RRIRYRPPRLPRPRPRPCGTPRP | -0.193 |
| RRIRDRPPRLPRPRPRPGSSPRP | 0.0783 |
| RRIRSRPPRLPRPRPRPMETPRP | 0.585 |
| RRIRDRPPRLPRPRPRPTCKPRP | 0.0657 |
| RRIRIRPPRLPRPRPRPVFRPRP | -0.169 |

| Sequence | shrunken log2 fold change |
| --- | --- |
| RRIRGRPPRLPRPRPRPPWNPRP | 0.411 |
| RRIRHRPPRLPRPRPRPWVVPRP | -0.48 |
| RRIRTRPPRLPRPRPRPNRVPRP | -0.0472 |
| RRIRLRPPRLPRPRPRPCFEPRP | -0.0179 |
| RRIRERPPRLPRPRPRPEESPRP | 0.148 |
| RRIRYRPPRLPRPRPRPKGNPRP | -0.423 |
| RRIRARPPRLPRPRPRPKRAPRP | 0.65 |
| RRIRGRPPRLPRPRPRPHWYPRP | -0.0365 |
| RRIRCRPPRLPRPRPRPQVNPRP | -0.246 |
| RRIRSRPPRLPRPRPRPKPYPRP | -0.153 |
| RRIRGRPPRLPRPRPRPNGWPRP | 0.477 |
| RRIRGRPPRLPRPRPRPSNCPRP | 0.0376 |
| RRIRERPPRLPRPRPRPFWEPRP | -0.56 |
| RRIRERPPRLPRPRPRPPAKPRP | 0.176 |
| RRIRKRPPRLPRPRPRPNCHPRP | -0.131 |
| RRIRIRPPRLPRPRPRPAQYPRP | -0.13 |
| RRIRNRPPRLPRPRPRPFYDPRP | 0.18 |
| RRIRWRPPRLPRPRPRPYKGPRP | -0.0487 |
| RRIRMRPPRLPRPRPRPFIGPRP | -0.0122 |
| RRIRIRPPRLPRPRPRPEAKPRP | 0.0733 |
| RRIRSRPPRLPRPRPRPRVCPRP | 0.366 |
| RRIRRRPPRLPRPRPRPYPTPRP | -0.0423 |
| RRIRDRPPRLPRPRPRPFTHPRP | -0.0968 |
| RRIRFRPPRLPRPRPRPNHTPRP | -0.626 |
| RRIRVRPPRLPRPRPRPENMPRP | -0.0886 |

| Sequence | shrunken log2 fold change |
| --- | --- |
| RRIRQRPPRLPRPRPRPFYRPRP | -0.0149 |
| RRIRTRPPRLPRPRPRPYCVPRP | -0.142 |
| RRIRDRPPRLPRPRPRPVIVPRP | 0.0947 |
| RRIRKRPPRLPRPRPRPLRYPRP | 0.227 |
| RRIRYRPPRLPRPRPRPWLNPRP | -0.367 |
| RRIRCRPPRLPRPRPRPDHDPRP | -0.265 |
| RRIRGRPPRLPRPRPRPSGPPRP | -0.0342 |
| RRIRTRPPRLPRPRPRPWVWPRP | 0.166 |
| RRIRWRPPRLPRPRPRPFWLPRP | 0.0108 |
| RRIRWRPPRLPRPRPRPYWMPRP | -0.265 |
| RRIRMRPPRLPRPRPRPSYRPRP | -0.0836 |
| RRIRDRPPRLPRPRPRPMMKPRP | 0.157 |
| RRIRGRPPRLPRPRPRPSQDPRP | 0.296 |
| RRIRNRPPRLPRPRPRPKVPPRP | -0.129 |
| RRIRHRPPRLPRPRPRPPPTPRP | 0.766 |
| RRIRDRPPRLPRPRPRPQTFPRP | 0.0361 |
| RRIRDRPPRLPRPRPRPILNPRP | -0.184 |
| RRIRIRPPRLPRPRPRPWYAPRP | -0.644 |
| RRIRMRPPRLPRPRPRPVGAPRP | 1.34 |
| RRIRERPPRLPRPRPRPPQVPRP | 0.207 |
| RRIRCRPPRLPRPRPRPEVNPRP | -0.00709 |
| RRIRWRPPRLPRPRPRPGIWPRP | 0.217 |
| RRIRIRPPRLPRPRPRPVVSPRP | -0.503 |
| RRIRRRPPRLPRPRPRPLGLPRP | 0.363 |
| RRIRWRPPRLPRPRPRPKENPRP | 0.373 |
